# B1: aCD3/HER2 heterodimer (bispecific antibody)
# chain 1: EVQLVESGGGLVQPGGSLKLSCAASGFTFNSYAMNWVRQAPGKGLEWVARIRSKYNNYATYYADSVKGRFTISRDDSKNTAYLQMNNLKTEDTAVYYCVRHGNFGNSYVSWWAYWGQGTLVTVSSGGGGSGGGGSELVMTQTPSSLSASLGDRVTISCRASQDISNYLNWYQQKPDGTVKLLIYYTSRLHSGVPSRFSGSGSGTDYSLTISNLEQEDIATYFCQQGNTLPLTFGAGTKLEIKASTKGPSVFPLAPCSRSTSESTAALGCLVKDYFPEPVTVSWNSGALTSGVHTFPAVLQSSGLYSLSSVVTVPSSNFGTQTYTCNVDHKPSNTKVDKTVGGGGSAAAEPKSSDKTHTCPPCPAPEAAGGPSVFLFPPKPKDTLMISRTPEVTCVVVDVSHEDPEVKFNWYVDGVEVHNAKTKPREEQYNSTYRVVSVLTVLHQDWLNGKEYKCKVSNKALPAPIEKTISKAKGQPREPQVYTLPPSREEMTKNQVSLTCLVKGFYPSDIAVEWESNGQPENNYDTTPPVLDSDGSFFLYSDLTVDKSRWQQGNVFSCSVMHEALHNHYTQKSLSLSPGK
# chain 2: not shown
# notes: also called P136797.3; positive control heterodimeric antibody
# B2: aCD3-Fc-aFOLR1 (bispecific antibody)
# chain 1: EVQLVESGGGLVQPGGSLKLSCAASGFTFNSYAMNWVRQAPGKGLEWVARIRSKYNNYATYYADSVKGRFTISRDDSKNTAYLQMNNLKTEDTAVYYCVRHGNFGNSYVSWWAYWGQGTLVTVSSASTKGPSVFPLAPSSKSTSGGTAALGCLVKDYFPEPVTVSWNSGALTSGVHTFPAVLQSSGLYSLSSVVTVPSSSLGTQTYICNVNHKPSNTKVDKRVEPKSCDKTHTCPPCPAPEAAGGPSVFLFPPKPKDTLMISRTPEVTCVVVDVSHEDPEVKFNWYVDGVEVHNAKTKPREEQYNSTYRVVSVLTVLHQDWLNGKEYKCKVSNKALPAPIEKTISKAKGQPREPQVYTLPPSRKEMTKNQVSLTCLVKGFYPSDIAVEWESNGQPENNYKTTPPVLKSDGSFFLYSKLTVDKSRWQQGNVFSCSVMHEALHNHYTQKSLSLSPGKAAAGGGGSGGGGSQVQLQESGPGLVKPSQTLSLTCTVSGGSISSGAYYWTWIRQHPGKGLEWIGYIYYSGSTYYNPSLKSRVSISIDTSKNQFSLKLSSVTAADTAVYYCARGSSSWFDYWGQGTLVTVSSASTKGPSVFPLAPSSKSTSGGTAALGCLVKDYFPEPVTVSWNSGALTSGVHTFPAVLQSSGLYSLSSVVTVPSSSLGTQTYICNVNHKPSNTKVDKRVEPKSC
# chain 2: not shown
# B3: aHER2-Fc-aCD3 (bispecific antibody)
# chain 1: EVQLLEQSGAELVRPGALVKLSCKASGFKIKDYFVNWVKQRPEQGLEWIGWIDPENDNSLYGPNFQDKASITADTSSNTGYLQLSGLTSEDTAVYYCALYYGSRGDAMDYWGQGTTVTVSSASTKGPSVFPLAPSSKSTSGGTAALGCLVKDYFPEPVTVSWNSGALTSGVHTFPAVLQSSGLYSLSSVVTVPSSSLGTQTYICNVNHKPSNTKVDKRVEPKSCDKTHTCPPCPAPEAAGGPSVFLFPPKPKDTLMISRTPEVTCVVVDVSHEDPEVKFNWYVDGVEVHNAKTKPREEQYNSTYRVVSVLTVLHQDWLNGKEYKCKVSNKALPAPIEKTISKAKGQPREPQVYTLPPSRKEMTKNQVSLTCLVKGFYPSDIAVEWESNGQPENNYKTTPPVLKSDGSFFLYSKLTVDKSRWQQGNVFSCSVMHEALHNHYTQKSLSLSPGKAAAGGGGSGGGGSEVQLVESGGGLVQPGGSLKLSCAASGFTFNSYAMNWVRQAPGKGLEWVARIRSKYNNYATYYADSVKGRFTISRDDSKNTAYLQMNNLKTEDTAVYYCVRHGNFGNSYVSWWAYWGQGTLVTVSSASTKGPSVFPLAPSSKSTSGGTAALGCLVKDYFPEPVTVSWNSGALTSGVHTFPAVLQSSGLYSLSSVVTVPSSSLGTQTYICNVNHKPSNTKVDKRVEPKSC
# chain 2: not shown
# B4: aFOLR1-Fc-aCD3 (bispecific antibody)
# chain 1: QVQLQESGPGLVKPSQTLSLTCTVSGGSISSGAYYWTWIRQHPGKGLEWIGYIYYSGSTYYNPSLKSRVSISIDTSKNQFSLKLSSVTAADTAVYYCARGSSSWFDYWGQGTLVTVSSASTKGPSVFPLAPSSKSTSGGTAALGCLVKDYFPEPVTVSWNSGALTSGVHTFPAVLQSSGLYSLSSVVTVPSSSLGTQTYICNVNHKPSNTKVDKRVEPKSCDKTHTCPPCPAPEAAGGPSVFLFPPKPKDTLMISRTPEVTCVVVDVSHEDPEVKFNWYVDGVEVHNAKTKPREEQYNSTYRVVSVLTVLHQDWLNGKEYKCKVSNKALPAPIEKTISKAKGQPREPQVYTLPPSRKEMTKNQVSLTCLVKGFYPSDIAVEWESNGQPENNYKTTPPVLKSDGSFFLYSKLTVDKSRWQQGNVFSCSVMHEALHNHYTQKSLSLSPGKAAAGGGGSGGGGSEVQLVESGGGLVQPGGSLKLSCAASGFTFNSYAMNWVRQAPGKGLEWVARIRSKYNNYATYYADSVKGRFTISRDDSKNTAYLQMNNLKTEDTAVYYCVRHGNFGNSYVSWWAYWGQGTLVTVSSASTKGPSVFPLAPSSKSTSGGTAALGCLVKDYFPEPVTVSWNSGALTSGVHTFPAVLQSSGLYSLSSVVTVPSSSLGTQTYICNVNHKPSNTKVDKRVEPKSC
# chain 2: not shown
# B5: aCD3-Fc-aHER2 (bispecific antibody)
# chain 1: EVQLVESGGGLVQPGGSLKLSCAASGFTFNSYAMNWVRQAPGKGLEWVARIRSKYNNYATYYADSVKGRFTISRDDSKNTAYLQMNNLKTEDTAVYYCVRHGNFGNSYVSWWAYWGQGTLVTVSSASTKGPSVFPLAPSSKSTSGGTAALGCLVKDYFPEPVTVSWNSGALTSGVHTFPAVLQSSGLYSLSSVVTVPSSSLGTQTYICNVNHKPSNTKVDKRVEPKSCDKTHTCPPCPAPEAAGGPSVFLFPPKPKDTLMISRTPEVTCVVVDVSHEDPEVKFNWYVDGVEVHNAKTKPREEQYNSTYRVVSVLTVLHQDWLNGKEYKCKVSNKALPAPIEKTISKAKGQPREPQVYTLPPSRKEMTKNQVSLTCLVKGFYPSDIAVEWESNGQPENNYKTTPPVLKSDGSFFLYSKLTVDKSRWQQGNVFSCSVMHEALHNHYTQKSLSLSPGKAAAGGGGSGGGGSEVQLLEQSGAELVRPGALVKLSCKASGFKIKDYFVNWVKQRPEQGLEWIGWIDPENDNSLYGPNFQDKASITADTSSNTGYLQLSGLTSEDTAVYYCALYYGSRGDAMDYWGQGTTVTVSSASTKGPSVFPLAPSSKSTSGGTAALGCLVKDYFPEPVTVSWNSGALTSGVHTFPAVLQSSGLYSLSSVVTVPSSSLGTQTYICNVNHKPSNTKVDKRVEPKSC
# chain 2: not shown
# Columns and labels:
# [1] = target: T1, Human Epidermal Growth Factor Receptor (HER2) (human, UniProt P04626 23-1255); assay: FACS titration on T47D cells
# T1 construct: whole, on cells; also called human epidermal growth factor 2
# [2] = target: T2, folate receptor 1 (human, UniProt P15328 25-234); assay: cell-based or functional assay
# [3] = target: T1, Human Epidermal Growth Factor Receptor …; assay: cell-based or functional assay
# [4] = target: T1, Human Epidermal Growth Factor Receptor …; assay: cell-based or functional assay; remark: listed apart in the source
# [5] = target: T1, Human Epidermal Growth Factor Receptor …; assay: cell-based or functional assay; remark: listed apart in the source
# [6] = target: T2, folate receptor 1; assay: cell-based or functional assay; remark: listed apart in the source
# T2 sequence (P15328 25-234): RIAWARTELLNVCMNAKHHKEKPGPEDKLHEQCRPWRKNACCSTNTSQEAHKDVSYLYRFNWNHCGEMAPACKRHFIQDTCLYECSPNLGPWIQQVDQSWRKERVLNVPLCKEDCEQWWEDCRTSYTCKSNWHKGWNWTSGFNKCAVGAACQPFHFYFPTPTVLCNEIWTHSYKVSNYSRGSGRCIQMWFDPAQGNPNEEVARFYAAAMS
binder,measurement,setting,value
B1,binding result,[1],binds
B2,"EC50 (pM), T cell dependent cytolysis of Cal-51 cells",[2],306 pM
B3,"EC50 (pM), T cell dependent cytolysis of BT474 cells",[3],638 pM
same,"EC50 (pM), T cell dependent cytolysis of SKOV-3 cells",[3],165 pM
same,"EC50, T cell dependent cytolysis of JIMT-1 cells",[4],0.0565 nM
same,"EC50 (pM), % CD25+ T cells (with SKOV-3 cells)",[5],79.3 pM
same,"EC50 (pM), % of T cells that are dividing (with SKOV-3 cells)",[5],76.7 pM
B4,"EC50 (concentration for half maximal lysis), T cell dependent cytolysis of Cal-51 cells",[6],0.114 nM
same,"EC50 (concentration for half maximal lysis), T cell dependent cytolysis of T47D cells",[6],0.105 nM
same,"EC50 (pM), T cell dependent cytolysis of Cal-51 cells",[2],60.9 pM
B5,"EC50, T cell dependent cytolysis of JIMT-1 cells",[4],0.0518 nM
